Where two headings read alike, the source gives them in different places. Where no end group is shown, it is not given here. The star is where a group is joined. C16 diacid = O=C(O)CCCCCCCCCCCCCCC(=O)*
Tests used:
[1] = molecular target: T1, human GIP receptor (human, UniProt P48546 22-466); assay: cell-based or functional assay
T1 sequence (looked up): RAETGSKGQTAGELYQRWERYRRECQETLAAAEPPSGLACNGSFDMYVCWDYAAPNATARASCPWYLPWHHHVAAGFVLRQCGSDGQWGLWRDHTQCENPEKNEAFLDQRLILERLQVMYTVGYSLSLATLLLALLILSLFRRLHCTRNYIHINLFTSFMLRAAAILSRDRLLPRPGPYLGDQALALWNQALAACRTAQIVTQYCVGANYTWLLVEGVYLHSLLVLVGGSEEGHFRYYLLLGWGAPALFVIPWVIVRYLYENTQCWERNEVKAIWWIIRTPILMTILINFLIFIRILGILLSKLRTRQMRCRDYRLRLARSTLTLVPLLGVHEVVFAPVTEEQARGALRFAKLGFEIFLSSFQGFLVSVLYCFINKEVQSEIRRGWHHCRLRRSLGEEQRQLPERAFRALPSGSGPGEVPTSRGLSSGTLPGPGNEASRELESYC

[2] = molecular target: T1, human GIP receptor; assay: cell-based or functional assay; remark: listed apart in the source

B1: AT470 (peptide)
peptide: EGTFISDYSIAMDKIK(C16 diacid)QQDFVNWLLAQKGPSSGA-OH
modifications: N-terminus assumed
SMILES: CC[C@H](C)[C@H](NC(=O)[C@H](CO)NC(=O)[C@H](Cc1ccc(O)cc1)NC(=O)[C@H](CC(=O)O)NC(=O)[C@H](CO)NC(=O)[C@@H](NC(=O)[C@H](Cc1ccccc1)NC(=O)[C@@H](NC(=O)CNC(=O)[C@@H](N)CCC(=O)O)[C@@H](C)O)[C@@H](C)CC)C(=O)N[C@@H](C)C(=O)N[C@@H](CCSC)C(=O)N[C@@H](CC(=O)O)C(=O)N[C@@H](CCCCN)C(=O)N[C@H](C(=O)N[C@@H](CCCCNC(=O)CCCCCCCCCCCCCCC(=O)O)C(=O)N[C@@H](CCC(N)=O)C(=O)N[C@@H](CCC(N)=O)C(=O)N[C@@H](CC(=O)O)C(=O)N[C@@H](Cc1ccccc1)C(=O)N[C@H](C(=O)N[C@@H](CC(N)=O)C(=O)N[C@@H](Cc1c[nH]c2ccccc12)C(=O)N[C@@H](CC(C)C)C(=O)N[C@@H](CC(C)C)C(=O)N[C@@H](C)C(=O)N[C@@H](CCC(N)=O)C(=O)N[C@@H](CCCCN)C(=O)NCC(=O)N1CCC[C@H]1C(=O)N[C@@H](CO)C(=O)N[C@@H](CO)C(=O)NCC(=O)N[C@@H](C)C(=O)O)C(C)C)[C@@H](C)CC
cAMP agonism % Emax [1]: 0%
cAMP antagonism [1]: 20 nM
cAMP antagonism % inhib [1]: 91%
cAMP antagonism pIC50 [1]: 7.7
cAMP antagonism [2]: 14 nM
cAMP antagonism % inhib [2]: 100%
cAMP antagonism log [2]: -7.8 log M

— patent US20220298218A1 (ANTAG THERAPEUTICS, published 2022)
